Like-named read-outs stand apart in the source and are kept apart here. Marks after values point to notes of the source that are not given here.

How the values of the data set were obtained: Eight homologs that were predicted to be glucose-binding proteins (FIG. 4, Table 3) were selected to probe different degrees of sequence identity to the ttGBP1 seed, and their glucose-binding properties were determined experimentally. These experiments comprised four successive steps: • 1. Synthetic gene construction. The amino acid sequence of the homology leads were backtranslated into DNA sequences. These were optimized for directing heterologous cytoplasmic expression of the protein homologues in E. coli, using either the OrfOpt or OrfMorph programs. These programs predict mRNA sequences that direct high-level protein expression in E. coli. The predicted gene sequences were assembled de novo from synthetic oligonucleotides. • 2. Heterologous protein expression of the homologues in E. coli. Plasmids carrying the synthetic expression constructs (see above) were transformed into KRX competent cells (Promega). Protein production was induced in bacterial cultures of these cultures, as described in the Materials and Methods. • 3. Purification of successfully expressed protein using immobilized metal affinity chromatography. • 4. Verification of glucose binding. Determination of the glucose-binding properties of the purified proteins using a thermal stability shift assay.
Analysis of glucose-binding properties using thermal melts. The thermal stability of purified GBP candidate proteins was determined by measuring the temperature-dependence of the fluorescence signal of an extrinsically added dye, SYPRO, using a Roche LightCycler (Layton and Hellinga, 2010, Biochemistry, 49, 10831-41). The total fluorescence intensity, S, is given by S=βFfF+βUfU 11 where fF and fU are the fractions of protein in the folded and unfolded states, respectively, and βF and βU the fluorescence baselines of these two states. To get the fractions of the two states, we have
[formula] where KU(T) is the temperature-dependent unfolding equilibrium constant, which by the van't Hoff approximation is given by
[formula] Where T is the temperature, Tm, the unfolding reaction transition mid-point temperature, and ΔHU the enthalpy of unfolding.

Where [1] appears, read: ligand-free protein, SYPRO Orange, Roche LightCycler.

B1: tnGBP4: glucose-binding protein from Thermotoga neapolitana, SEQ ID NO: 12 (protein)
chain: MLEIFSWWTAGGEAEALEALIKVFNKYYPDVEVINATVAGGAGTNAKAVLKTRILGGNPPDSFQVHAGMELIDTYVIPGYMTPITNLLEQWGVMDKFPKGILEMASYEGEIYSIPVNVHRGNVVFYNKKIAEEIGMNEPPKTWDEFIMYLQKAKEKGYVGLALGDKNKWTALHLFETILLGVLGPNDYNGLWKGEVSFNDPRIRRAFEIMNKLLDYVNEDHAALAWQDATRLVYEGKALANVMGDWAEGYLKSVGWEPGKDFGWFAVPETQNAFMVVSDTFGLPKNAPHKENAVKWLKVVASVEGQDAFNPIKGSIPARLDADRSKYDIYLQWSMEDFATKALTPSIAHGSAAPEGFVTTLNDIINRFVTTRDIDSALEELLMAAEDEGYLVEGGSHHHHHH
modifications: tnGBP4 (with signal peptide replaced with M and a GGSHHHHHH at C-terminus)
Turning to B1, the “Thermostability ^apoTm” value under setting [1] is above 100 °C.

B2: asGBP8: glucose-binding protein from Arthrobacter sp., SEQ ID NO: 16 (protein)
chain: MKLEITSWWTSGSEADALNVLIDGVKAAKPGLSVDNAAVSGGGGANARQALAARLQAGSPPDAWQVHPAGQLKSYVDGGQVADLTDLWTEGDWASQMPKDVAEAQQVDGKYYTVPIGVHRGNVLWTNPAVLSKANVTIDADAGIDGLISSLEQVQASGTTPLALGDKDIFASSQLLESLIMSRAGADNWTKLFTSEYSFDAPEVKQALEDYKTILSFANKDHSAITWDEAAKKMADGEAAVNLMGDWAYGELLNAGKKPGTDFAWVAFPGKEDIFDYVGDGFSIPANNIPHAEAARAWLKTLMDPKIQTEFAAKKGSIPAVTSADISGLSEYQQEAAKSLASGAVVSSLAHAQAAGAEFAQTYADAVSTFNGSGNTDAFIASMTQAQKTQLGGSHHHHHH
modifications: asGBP8 (with signal peptide replaced with M and a GGSHHHHHH at C-terminus)
On to B2, for which the “Thermostability ^apoTm” value under setting [1] came out at 58 °C.

B3: koGBP5: glucose-binding protein from Kosmotoga olearia, SEQ ID NO: 13 (protein)
chain: MLEIFSWWTGGGEEEGLLALFDVFHKYYPDVEIINATVAGGAGTNAKAVLKTRMLGGNPPDSFQVHGGMELIDTYVVTGMMEPITDLLEEWGIIDKFPEDILKIASYKGEVYSIPVNVHRGNVVFYNKAILEEVGIEKVPSTWPEFIEVLKKIKKAGYIPLALGDKNKWTATHLFEDILLSTLGPYNYNGLWNGRTSFEHQGVKEALEIFKELMNYVNPNHASLTWQDATLLVFEGKAAFNVMGDWAEGYLKTLGWTPGKEFGWMVVPGTKGSFMVVTDTFGLPKNAPHRENAIKWLKIISSVEGQDTFNPIKGSIPARIDADRSLYDDYLIWSMDDFATNALCPSIIHGSAAPEAFVTALNDTINMFITRKDVKKALKEIIYAAEDYLEGGSHHHHHH
modifications: koGBP5 (with signal peptide replaced with M and a GGSHHHHHH at C-terminus)
On to B3, for which the “Thermostability ^apoTm” value under setting [1] was above 100 °C.

B4: ttGBP1: glucose-binding protein from Thermus thermophilus, SEQ ID NO: 9 (protein)
chain: MKLEIFSWWAGDEGPALEALIRLYKQKYPGVEVINATVTGGAGVNARAVLKTRMLGGDPPDTFQVHAGMELIGTWVVANRMEDLSALFRQEGWLQAFPKGLIDLISYKGGIWSVPVNIHRSNVMWYLPAKLKGWGVNPPRTWDKFLATAQTLKQKGLEAPLALGENWTQQHLWESVALAVLGPDDWNNLWNGKLKFTDPKAVRAWEVFGRVLDAANKDAAGLSWQQAVDRVVQGKAAFNIMGDWAAGYMTTTLKLKPGTDFAWAPSPGTQGVFMMLSDSFGLPKGAKNRQNAINWLRLVGSKEGQDTSNPLKGSIAARLDSDPSKYNAYGQSAMRDWRSNRIVGSLVHGAVAPESFMSQFGTVMEIFLQTRNPQAAANAAQAIADQVGLGRLGQHHHHHH
modifications: ttGBP1 (with signal peptide replaced with M and a HHHHHH at C-terminus)
On to B4, for which the “Thermostability ^apoTm” value under setting [1] was above 100 °C.

B5: bhGBP6: glucose-binding protein from Bacillus halodurans, SEQ ID NO: 14 (protein)
chain: MLEIFSWWTGAGEEDGLLALIELFEEKHPEIEVDNAAVAGGAGTNAKAVLTSRMQGNDPPGTFQVHGGAELNDSWVAAGQMDPLNDLFEAEGWADKFPEELIELVSKDGNIYSVPVNIHRGNVLWYNTEIFEEHGLEVPTTFEEFFDVADALQEAGVTPLALGDREPWAATHLFETVLLGTLGADDYNKLWSGEVGMDDPRVEEAAEIFIRMLDYVNEDHSSRNWQDASQLVAQGEAAMNVMGDWAKGYFVNDLNLAVKEDFGWAATPGTEGTFMVITDTFGLPTGVENPEVVKSFLAVLGSQEGQDAFNPLKGSIPARVDADVSKYDEYGQETIEDFKSAELSPSLAHGSAANEGFLTQVNQAINIFVTQKDVDSFVDSLKQYQPGGSHHHHHH
modifications: bhGBP6 (with signal peptide replaced with M and a GGSHHHHHH at C-terminus)
Consider B5, for which the “Thermostability ^apoTm” value under setting [1] amounted to 53 °C.

B6: smGBP7: glucose-binding protein from Staphylothermus marinus, SEQ ID NO: 15 (protein)
chain: MELVIYHWWTAGGEREAINAVFQVFKQKYPNIQIVENPVAGGAGSVMKSVIIGLLAAGTPPDTFQVHAGAELKEYVDAGYLAPIDDIWSKLGLDKVIPSTLQVMAKFNGHYYAVPIDVHRSNVLWYNPKIFNELGIINKFGDPRNWSVDTLLQVARYIKQQRPDIAPIALASRNKWPVTHLFEVLLANAGGPETYVKFFTGKFNYNDPNDPVVQTVKKVLTVMATMAKEGLFNSNHPELTWDQAAALVAEGKAAMFIHGDWVAGYYIANNYKYGKDWAAAPFPKNIFILLSDAFELPKNAPHPEAAKDWLMVVGSKEAQEKFNLIKGSIPARTDVSPKYPDPYRPETAEDFQKSTLIPSAVHGGIAKEAFMTDLHNILTSMLTAVSVGTPVDNAVNTALAQILQSVKTSGLASFWKGYTIDYFITKRGGSHHHHHH
modifications: smGBP7 (with signal peptide replaced with M and a GGSHHHHHH at C-terminus)
In the case of B6, the “Thermostability ^apoTm” value (determined using fluorescent Acrylodan and/or Badan conjugates) is 40^f ° C.

B7: tsGBP2: glucose-binding protein from Thermus scotoductus, SEQ ID NO: 10 (protein)
chain: MKLEIFSWWAGDEGPALEALIRLYKQKYPGVEVINATVTGGAGVNAKAVLKTRMLGGDPPDTFQVHAGQELIGTWVVADRMEDLTSLFRQEGWLQAFPKGLIDLLSYKGGIWSVPVNIHRSNVMWYIPAKLKEWGVTPPKTWAEFLATAQTLKRKGLEAPLALGENWTQQHLWESVALATLGADGWNNLWSGKLKFTDPKAVAVWETFGKVLDAANKDAAGLSWQQAVDRVVQGKAAFNIMGDWAAGYMSTTLKLKPGTDFAWTPSPGTSGIFMMLSDSFGLPKGAKNRQNAINWLKLVGSKEGQDTFNPLKGSIAARLDSDPAKYNAYGQSAMKDWKSNRIVGSLVHGAVAPESFMSQFGTVMEIFLQSRNPQAAANAAQAIANQVGLGRGGSHHHHHH
modifications: tsGBP2 (with signal peptide replaced with M and a GGSHHHHHH at C-terminus)
Consider B7, for which the “Thermostability ^apoTm” value under setting [1] was above 100 °C.

Source of the values: patent US11402384B2 (Duke University, priority 2015, dated 2022).
